Laboratory results reported in US20140010815A1 (JOSAI UNIVERSITY, published 2014).
No end group written: not given here.

Biological target: T1, conjugate of a peptide consisting of an amino acid sequence represented by SEQ ID NO: 1 and KLH (also: conjugated to KLH with glutaraldehyde, attachment site not given here)
T1 construct: Synthetic peptide (Fmoc solid phase) chemically conjugated to KLH; used as the immunogen and as the coating antigen in the antibody titer ELISA; also called antigenic substance; not shown: KLH carrier protein (SIGMA), coupled by glutaraldehyde
T1 peptide: SSVLYGGPPSAA
Experiment: antibody titer ELISA, plate coated with the peptide-KLH conjugate, hybridoma culture supernatant, fluorescence read-out
Method: A buffer solution containing the above-mentioned antigenic substance (5 mg) (Baicarbonate buffer: 100 mM NaHCO₃—NaOH, pH 9.2 to 9.5, the concentration of the peptide: 1 μg/mL) was added to a 96 well flat bottom plate in an amount of 50 μL per well, and allowed to stand for coating at room temperature for 2 hours. The plate was washed 3 times with wash buffer (PBST), and then blocking buffer (3% skim milk 1% BSA, PBS) was added in an amount of 200 to 250 μL/well to react at 4° C. for one full day, and then washed 3 times. Then the culture supernatant of hybridoma was added in an amount of 100 μL/well, which was allowed to react at 37° C. for 4 hours or at 4° C. for one full day. After the plate was washed 3 times, biotin-labeled anti-mouse IgG (SIGMA) diluted 10000 times with dilution buffer (10 mM Tris-HCl (pH 8.0), 0.9% (W/V) NaCl, 0.05% (W/V) Tween 20) was added in an amount of 50 μL/well, which was allowed to react at room temperature for 2 hours. […] Then washing was performed 6 times, and fluorescent substrate buffer (Attophos substrate buffer, Roche Diagnostics K.K.) was added in an amount of 50 μL/well, and the plate was shaded to allow fluorescence to develop. Fluorescence intensity was measured in CytoFluorII (PerSeptive Biosystems).

binding result: binds
B1: monoclonal antibody (SSVmAb) of Example 1, produced by Mouse-Mouse hybridoma SSV-C 93-3 (antibody, IgG1, V domains shown)
VH: EIQLQQSGAELVKPGASVKISCKASGYSFTGYNMNWVKQSHGKSLEWIGNINPYYGSTSYNQKFKGKATLTVDKSSSTAYMQLNSLTSEDSAVYYCARSPYYSNYWRYFDYWGQGTTLTVSS
VL: QIVLSQSPAILSASPGEKVTMTCRASSSVSYMHWYQQKPGSSPKPWIYATSNLASGVPARFSGSGSGTSYSLTISRVEAEDAATYYCQQWSSNPWTFGGGTKLEIK
notes: Mouse monoclonal antibody purified from hybridoma culture supernatant; light chain amplified with a mouse kappa constant region primer
